Experimental data published in publication PMC2854499 (Nature, 2008).

Target: T1, MBP-tagged WSTF C-motif (208-345) (human, UniProt Q9UIG0 208-345)
T1 sequence (looked up): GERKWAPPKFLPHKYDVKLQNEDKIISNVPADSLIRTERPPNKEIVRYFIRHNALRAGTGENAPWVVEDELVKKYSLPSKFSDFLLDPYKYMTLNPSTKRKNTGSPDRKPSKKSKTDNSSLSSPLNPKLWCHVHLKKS
Test: pull-down + SEC

B1: GST-tagged WSTF N-motif (1-205) (domain or fragment, human, UniProt Q9UIG0 1-205, looked up)
chain: MAPLLGRKPFPLVKPLPGEEPLFTIPHTQEAFRTREEYEARLERYSERIWTCKSTGSSQLTHKEAWEEEQEVAELLKEEFPAWYEKLVLEMVHHNTASLEKLVDTAWLEIMTKYAVGEECDFEVGKEKMLKVKIVKIHPLEKVDEEATEKKSDGACDSPSSDKENSSQIAQDHQKKETVVKEDEGRRESINDRARRSPRKLPTSL
  stoichiometry N: 1
